The values that follow come from patent publication US20210069289.

In the data set the target is human octamer-binding transcription factor 4 (OCT4), endogenous in NCCIT and NTERA-2 cells (UniProt Q01860).
UniProt Q01860, sequence (Q01860 whole entry, looked up): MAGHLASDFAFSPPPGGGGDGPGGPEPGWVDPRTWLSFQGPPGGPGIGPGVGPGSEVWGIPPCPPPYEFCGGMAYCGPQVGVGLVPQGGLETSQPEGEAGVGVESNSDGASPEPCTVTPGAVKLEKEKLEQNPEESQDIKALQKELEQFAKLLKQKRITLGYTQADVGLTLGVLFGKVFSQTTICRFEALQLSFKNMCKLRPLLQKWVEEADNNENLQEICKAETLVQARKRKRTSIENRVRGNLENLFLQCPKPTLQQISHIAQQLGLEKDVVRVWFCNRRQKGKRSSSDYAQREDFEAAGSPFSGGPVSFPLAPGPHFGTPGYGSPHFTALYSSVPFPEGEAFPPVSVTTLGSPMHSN

Take “protein phosphatase 1 (PP1), endogenous in NCCIT and NTERA-2 cells”: the “phosphorylated OCT4 after doxycycline-dependent shRNA suppression of PP1 (western blotting and immunofluorescence staining)” value is on record as “when the expression of PP1 was suppressed using doxycycline, the phosphorylated OCT4 was increased”; the “phosphorylation of OCT4 after okadaic acid treatment (western blotting and immunofluorescence staining)” value is listed as “when PP1 was inhibited, the phosphorylation of OCT4 was increased”.
